Starred links: 1 amine or outer side, 2 acyl side, 3 side chain; linkers in the order of their positions; H or OH if unused. Non-standard residues stand in square brackets, D forms with d. Groups on a side chain read outwards from the residue. No end group written: not given here. *: point of attachment. C18 diacid = O=C(O)CCCCCCCCCCCCCCCCC(=O)*; γGlu = O=C(O)[C@H](CCC(=O)[*:2])N[*:1]; Palmitoyl = CCCCCCCCCCCCCCCC(=O)*; AEEA = NCCOCCOCC(=O)O; Aib = CC(C)(N)C(=O)O
These binders were tested against rat CRF2R α receptor (rat, UniProt P47866 20-411) (assay: cell-based or functional assay).
Chain of rat CRF2R α receptor (P47866 20-411): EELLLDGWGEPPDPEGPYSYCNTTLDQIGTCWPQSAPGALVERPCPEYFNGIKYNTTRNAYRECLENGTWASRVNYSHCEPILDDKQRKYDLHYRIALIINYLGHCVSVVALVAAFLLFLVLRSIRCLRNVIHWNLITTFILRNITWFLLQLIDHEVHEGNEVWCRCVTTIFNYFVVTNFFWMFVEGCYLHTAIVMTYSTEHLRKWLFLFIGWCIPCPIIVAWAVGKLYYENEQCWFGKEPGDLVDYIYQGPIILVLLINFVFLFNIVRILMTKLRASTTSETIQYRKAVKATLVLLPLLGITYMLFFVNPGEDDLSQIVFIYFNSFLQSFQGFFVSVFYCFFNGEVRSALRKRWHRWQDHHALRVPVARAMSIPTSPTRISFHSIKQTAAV

Binder	EC50 [nM], 0% HSA (cAMP, A7R5 cells) [nM]
IVLSLD[dV]PTKLK([γGlu-Palmitoyl])QKLLKQERQRKEREQAEKNKRILERV-NH2 (N-terminus assumed; SMILES CCCCCCCCCCCCCCCC(=O)N[C@@H](CCC(=O)NCCCC[C@H](NC(=O)[C@H](CC(C)C)NC(=O)[C@H](CCCCN)NC(=O)[C@@H](NC(=O)[C@@H]1CCCN1C(=O)[C@H](NC(=O)[C@H](CC(=O)O)NC(=O)[C@H](CC(C)C)NC(=O)[C@H](CO)NC(=O)[C@H](CC(C)C)NC(=O)[C@@H](NC(=O)[C@@H](N)[C@@H](C)CC)C(C)C)C(C)C)[C@@H](C)O)C(=O)N[C@@H](CCC(N)=O)C(=O)N[C@@H](CCCCN)C(=O)N[C@@H](CC(C)C)C(=O)N[C@@H](CC(C)C)C(=O)N[C@@H](CCCCN)C(=O)N[C@@H](CCC(N)=O)C(=O)N[C@@H](CCC(=O)O)C(=O)N[C@@H](CCCNC(=N)N)C(=O)N[C@@H](CCC(N)=O)C(=O)N[C@@H](CCCNC(=N)N)C(=O)N[C@@H](CCCCN)C(=O)N[C@@H](CCC(=O)O)C(=O)N[C@@H](CCCNC(=N)N)C(=O)N[C@@H](CCC(=O)O)C(=O)N[C@@H](CCC(N)=O)C(=O)N[C@@H](C)C(=O)N[C@@H](CCC(=O)O)C(=O)N[C@@H](CCCCN)C(=O)N[C@@H](CC(N)=O)C(=O)N[C@@H](CCCCN)C(=O)N[C@@H](CCCNC(=N)N)C(=O)N[C@H](C(=O)N[C@@H](CC(C)C)C(=O)N[C@@H](CCC(=O)O)C(=O)N[C@@H](CCCNC(=N)N)C(=O)N[C@H](C(N)=O)C(C)C)[C@@H](C)CC)C(=O)O) [peptide of SEQ ID NO: 18]	0.02
IVLSLD[dV]PIKLK([AEEA-AEEA-γGlu-C18 diacid])QILLEQERQK[Aib]QRQQAEKNKQILAQV-NH2 (N-terminus assumed; SMILES CC[C@H](C)[C@H](N)C(=O)N[C@H](C(=O)N[C@@H](CC(C)C)C(=O)N[C@@H](CO)C(=O)N[C@@H](CC(C)C)C(=O)N[C@@H](CC(=O)O)C(=O)N[C@@H](C(=O)N1CCC[C@H]1C(=O)N[C@H](C(=O)N[C@@H](CCCCN)C(=O)N[C@@H](CC(C)C)C(=O)N[C@@H](CCCCNC(=O)COCCOCCNC(=O)COCCOCCNC(=O)CC[C@H](NC(=O)CCCCCCCCCCCCCCCCC(=O)O)C(=O)O)C(=O)N[C@@H](CCC(N)=O)C(=O)N[C@H](C(=O)N[C@@H](CC(C)C)C(=O)N[C@@H](CC(C)C)C(=O)N[C@@H](CCC(=O)O)C(=O)N[C@@H](CCC(N)=O)C(=O)N[C@@H](CCC(=O)O)C(=O)N[C@@H](CCCNC(=N)N)C(=O)N[C@@H](CCC(N)=O)C(=O)N[C@@H](CCCCN)C(=O)NC(C)(C)C(=O)N[C@@H](CCC(N)=O)C(=O)N[C@@H](CCCNC(=N)N)C(=O)N[C@@H](CCC(N)=O)C(=O)N[C@@H](CCC(N)=O)C(=O)N[C@@H](C)C(=O)N[C@@H](CCC(=O)O)C(=O)N[C@@H](CCCCN)C(=O)N[C@@H](CC(N)=O)C(=O)N[C@@H](CCCCN)C(=O)N[C@@H](CCC(N)=O)C(=O)N[C@H](C(=O)N[C@@H](CC(C)C)C(=O)N[C@@H](C)C(=O)N[C@@H](CCC(N)=O)C(=O)N[C@H](C(N)=O)C(C)C)[C@@H](C)CC)[C@@H](C)CC)[C@@H](C)CC)C(C)C)C(C)C) [peptide of SEQ ID NO: 131]	0.39
IVLSLD[dV]PIKLK([AEEA-AEEA-γGlu-C18 diacid])QILLEQARQK[Aib]QRAQAEKNKRILERV-NH2 (N-terminus assumed; SMILES CC[C@H](C)[C@H](N)C(=O)N[C@H](C(=O)N[C@@H](CC(C)C)C(=O)N[C@@H](CO)C(=O)N[C@@H](CC(C)C)C(=O)N[C@@H](CC(=O)O)C(=O)N[C@@H](C(=O)N1CCC[C@H]1C(=O)N[C@H](C(=O)N[C@@H](CCCCN)C(=O)N[C@@H](CC(C)C)C(=O)N[C@@H](CCCCNC(=O)COCCOCCNC(=O)COCCOCCNC(=O)CC[C@H](NC(=O)CCCCCCCCCCCCCCCCC(=O)O)C(=O)O)C(=O)N[C@@H](CCC(N)=O)C(=O)N[C@H](C(=O)N[C@@H](CC(C)C)C(=O)N[C@@H](CC(C)C)C(=O)N[C@@H](CCC(=O)O)C(=O)N[C@@H](CCC(N)=O)C(=O)N[C@@H](C)C(=O)N[C@@H](CCCNC(=N)N)C(=O)N[C@@H](CCC(N)=O)C(=O)N[C@@H](CCCCN)C(=O)NC(C)(C)C(=O)N[C@@H](CCC(N)=O)C(=O)N[C@@H](CCCNC(=N)N)C(=O)N[C@@H](C)C(=O)N[C@@H](CCC(N)=O)C(=O)N[C@@H](C)C(=O)N[C@@H](CCC(=O)O)C(=O)N[C@@H](CCCCN)C(=O)N[C@@H](CC(N)=O)C(=O)N[C@@H](CCCCN)C(=O)N[C@@H](CCCNC(=N)N)C(=O)N[C@H](C(=O)N[C@@H](CC(C)C)C(=O)N[C@@H](CCC(=O)O)C(=O)N[C@@H](CCCNC(=N)N)C(=O)N[C@H](C(N)=O)C(C)C)[C@@H](C)CC)[C@@H](C)CC)[C@@H](C)CC)C(C)C)C(C)C) [peptide of SEQ ID NO: 140]	0.1
IVLSLDVPIKLK([AEEA-AEEA-γGlu-C18 diacid])QILLEQAKQKKLRAQAETNVRILERV-NH2 (N-terminus assumed; SMILES CC[C@H](C)[C@H](N)C(=O)N[C@H](C(=O)N[C@@H](CC(C)C)C(=O)N[C@@H](CO)C(=O)N[C@@H](CC(C)C)C(=O)N[C@@H](CC(=O)O)C(=O)N[C@H](C(=O)N1CCC[C@H]1C(=O)N[C@H](C(=O)N[C@@H](CCCCN)C(=O)N[C@@H](CC(C)C)C(=O)N[C@@H](CCCCNC(=O)COCCOCCNC(=O)COCCOCCNC(=O)CC[C@H](NC(=O)CCCCCCCCCCCCCCCCC(=O)O)C(=O)O)C(=O)N[C@@H](CCC(N)=O)C(=O)N[C@H](C(=O)N[C@@H](CC(C)C)C(=O)N[C@@H](CC(C)C)C(=O)N[C@@H](CCC(=O)O)C(=O)N[C@@H](CCC(N)=O)C(=O)N[C@@H](C)C(=O)N[C@@H](CCCCN)C(=O)N[C@@H](CCC(N)=O)C(=O)N[C@@H](CCCCN)C(=O)N[C@@H](CCCCN)C(=O)N[C@@H](CC(C)C)C(=O)N[C@@H](CCCNC(=N)N)C(=O)N[C@@H](C)C(=O)N[C@@H](CCC(N)=O)C(=O)N[C@@H](C)C(=O)N[C@@H](CCC(=O)O)C(=O)N[C@H](C(=O)N[C@@H](CC(N)=O)C(=O)N[C@H](C(=O)N[C@@H](CCCNC(=N)N)C(=O)N[C@H](C(=O)N[C@@H](CC(C)C)C(=O)N[C@@H](CCC(=O)O)C(=O)N[C@@H](CCCNC(=N)N)C(=O)N[C@H](C(N)=O)C(C)C)[C@@H](C)CC)C(C)C)[C@@H](C)O)[C@@H](C)CC)[C@@H](C)CC)C(C)C)C(C)C) [peptide of SEQ ID NO: 43]	11.5

Other lines, results leading:

EC50 [nM], 0% HSA (cAMP, A7R5 cells) [nM]	Binder
47.3	IVLSLDVPIKLK([AEEA-AEEA-γGlu-C18 diacid])QILLEQAKQK[Aib]LKAQAETNVRILERV-NH2 (N-terminus assumed; SMILES CC[C@H](C)[C@H](N)C(=O)N[C@H](C(=O)N[C@@H](CC(C)C)C(=O)N[C@@H](CO)C(=O)N[C@@H](CC(C)C)C(=O)N[C@@H](CC(=O)O)C(=O)N[C@H](C(=O)N1CCC[C@H]1C(=O)N[C@H](C(=O)N[C@@H](CCCCN)C(=O)N[C@@H](CC(C)C)C(=O)N[C@@H](CCCCNC(=O)COCCOCCNC(=O)COCCOCCNC(=O)CC[C@H](NC(=O)CCCCCCCCCCCCCCCCC(=O)O)C(=O)O)C(=O)N[C@@H](CCC(N)=O)C(=O)N[C@H](C(=O)N[C@@H](CC(C)C)C(=O)N[C@@H](CC(C)C)C(=O)N[C@@H](CCC(=O)O)C(=O)N[C@@H](CCC(N)=O)C(=O)N[C@@H](C)C(=O)N[C@@H](CCCCN)C(=O)N[C@@H](CCC(N)=O)C(=O)N[C@@H](CCCCN)C(=O)NC(C)(C)C(=O)N[C@@H](CC(C)C)C(=O)N[C@@H](CCCCN)C(=O)N[C@@H](C)C(=O)N[C@@H](CCC(N)=O)C(=O)N[C@@H](C)C(=O)N[C@@H](CCC(=O)O)C(=O)N[C@H](C(=O)N[C@@H](CC(N)=O)C(=O)N[C@H](C(=O)N[C@@H](CCCNC(=N)N)C(=O)N[C@H](C(=O)N[C@@H](CC(C)C)C(=O)N[C@@H](CCC(=O)O)C(=O)N[C@@H](CCCNC(=N)N)C(=O)N[C@H](C(N)=O)C(C)C)[C@@H](C)CC)C(C)C)[C@@H](C)O)[C@@H](C)CC)[C@@H](C)CC)C(C)C)C(C)C) [peptide of SEQ ID NO: 45]
13.3	IVLSLD[dV]PTKLK([AEEA-AEEA-γGlu-C18 diacid])QKLLKQERQRK[Aib]REQAEKNKRILERV-NH2 (N-terminus assumed; SMILES CC[C@H](C)[C@H](N)C(=O)N[C@H](C(=O)N[C@@H](CC(C)C)C(=O)N[C@@H](CO)C(=O)N[C@@H](CC(C)C)C(=O)N[C@@H](CC(=O)O)C(=O)N[C@@H](C(=O)N1CCC[C@H]1C(=O)N[C@H](C(=O)N[C@@H](CCCCN)C(=O)N[C@@H](CC(C)C)C(=O)N[C@@H](CCCCNC(=O)COCCOCCNC(=O)COCCOCCNC(=O)CC[C@H](NC(=O)CCCCCCCCCCCCCCCCC(=O)O)C(=O)O)C(=O)N[C@@H](CCC(N)=O)C(=O)N[C@@H](CCCCN)C(=O)N[C@@H](CC(C)C)C(=O)N[C@@H](CC(C)C)C(=O)N[C@@H](CCCCN)C(=O)N[C@@H](CCC(N)=O)C(=O)N[C@@H](CCC(=O)O)C(=O)N[C@@H](CCCNC(=N)N)C(=O)N[C@@H](CCC(N)=O)C(=O)N[C@@H](CCCNC(=N)N)C(=O)N[C@@H](CCCCN)C(=O)NC(C)(C)C(=O)N[C@@H](CCCNC(=N)N)C(=O)N[C@@H](CCC(=O)O)C(=O)N[C@@H](CCC(N)=O)C(=O)N[C@@H](C)C(=O)N[C@@H](CCC(=O)O)C(=O)N[C@@H](CCCCN)C(=O)N[C@@H](CC(N)=O)C(=O)N[C@@H](CCCCN)C(=O)N[C@@H](CCCNC(=N)N)C(=O)N[C@H](C(=O)N[C@@H](CC(C)C)C(=O)N[C@@H](CCC(=O)O)C(=O)N[C@@H](CCCNC(=N)N)C(=O)N[C@H](C(N)=O)C(C)C)[C@@H](C)CC)[C@@H](C)O)C(C)C)C(C)C) [peptide of SEQ ID NO: 36]
